Results reported in patent publication US20120201811A1 (US Dept. of Health and Human Services, published 2012).
Read-outs that look alike come from different tables or passages of the source.

T1: HIV-1 Rev (clone BH10) (HIV-1 (isolate BH10), UniProt P04616 1-116)
T1 sequence: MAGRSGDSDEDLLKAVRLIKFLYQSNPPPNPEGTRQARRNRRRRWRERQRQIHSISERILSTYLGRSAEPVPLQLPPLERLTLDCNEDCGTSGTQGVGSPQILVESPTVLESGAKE

B1: Fab/Rev complex (1:1 complex of Fab SJS-R1 and HIV-1 Rev) (other)
light: ELVMTQTPSSVSEPVGGTVTIKCQASQSISSWLSWYQQKPGQPPKLLIYDASNLASGVPSRFMGSGSGTEYTLTISGVQREDAATYYCLGGYPAASYRTAFGGGTELEIIRTVAAPSVFIFPPSDEQLKSGTASVVCLLNNFYPREAKVQWKVDNALQSGNSQESVTEQDSKDSTYSLSSTLTLSKADYEKHKVYACEVTHQGLSSPVTKSFNRGEC
heavy: QEQLVESGGRLVTPGTALTLTCKVSGFSLSGFWLNWVRQAPGKGLEWVGAIYRGSGSEWYASWAKGRFTISDTSTTVTLKLTSPTTEDTATYFCAADTTDNGYFTIWGPGTLVTVSSASTKGPSVFPLAPSAKSTSGGTAALGCLVKDYFPEPVTVSWNSGALTSGVHTFPAVLQSSGLYSLSSVVTVPSSSLGTQTYICNVNHKPSNTKVDKKAEPKSCDKTRGHHHHHH
chain: T1 sequence
notes: mature; also called Fab/Rev immune complex
B2: Fab SJS-R1 (chimeric rabbit/human anti-Rev Fab) (Fab, V domains shown)
VH: QEQLVESGGRLVTPGTALTLTCKVSGFSLSGFWLNWVRQAPGKGLEWVGAIYRGSGSEWYASWAKGRFTISDTSTTVTLKLTSPTTEDTATYFCAADTTDNGYFTIWGPGTLVTVSS
VL: ELVMTQTPSSVSEPVGGTVTIKCQASQSISSWLSWYQQKPGQPPKLLIYDASNLASGVPSRFMGSGSGTEYTLTISGVQREDAATYYCLGGYPAASYRTAFGGGTELEIIR
notes: also called SJS-R1 Fab; Rev Fab SJS-R1
B3: scFv SJS-R1 (mature SJS-R1 scFv) (scFv)
scFv: AELVMTQTPSSVSEPVGGTVTIKCQASQSISSWLSWYQQKPGQPPKLLIYDASNLASGVPSRFMGSGSGTEYTLTISGVQREDAATYYCLGGYPAASYRTAFGGGTELEIIGGSSRSSSSGGGGSGGGGQEQLVESGGRLVTPGTALTLTCKVSGFSLSGFWLNWVRQAPGKGLEWVGAIYRGSGSEWYASWAKGRFTISDTSTTVTLKLTSPTTEDTATYFCAADTTDNGYFTIWGPGTLVTVSSHHHHHH
notes: also called anti-Rev scFv; Rev scFv

Key:
[1] = target: the molecule itself; assay: sedimentation equilibrium ultracentrifugation, gradient fitted as a monomer-dimer system (self-association of the Fab/Rev complex); self-association of the 1:1 Fab/Rev complex, monomer-dimer fit of sedimentation equilibrium
HIV-1 Rev (clone BH10) [2] = target: T1, HIV-1 Rev (clone BH10)
HIV-1 Rev (clone BH10) [3] = target: T1, HIV-1 Rev (clone BH10); assay: densitometry of Coomassie-stained SDS-PAGE of the Ni-purified complex
HIV-1 Rev (clone BH10) [4] = target: T1, HIV-1 Rev (clone BH10); assay: SPR (Biacore X), Rev immobilized on CM5 chip, Fab as analyte, Kd=kd/ka
HIV-1 Rev (clone BH10) [5] = target: T1, HIV-1 Rev (clone BH10); assay: SPR (Biacore X), Rev immobilized on CM5 chip, Fab as analyte, 1:1 Langmuir global fit

Binder	Kd [1]	koff (HIV-1 Rev (clone BH10) [2])	kon (HIV-1 Rev (clone BH10) [2])	molar ratio in the purified complex (HIV-1 Rev (clone BH10) [3])	Kd (HIV-1 Rev (clone BH10) [4])	koff (HIV-1 Rev (clone BH10) [5])	kon (HIV-1 Rev (clone BH10) [5])
B1	~100 µM	–	–	–	–	–	–
B2	–	8.3e-06 s⁻¹	228000 M⁻¹ s⁻¹	0.9 mol Rev per mol Fab	~0.04 nM	8e-06 s⁻¹	220000 M⁻¹ s⁻¹
B3	–	–	–	0.87 mol Rev per mol scFv	–	–	–
